The target of assay [1] is huIL-17RA-FLAG-polyHis (human) (UniProt Q96F46). Nature of the assay: Luminex binning; huIgG on bead 72 as capture, 2nd mAb A [D00012 FIG. 16B].
The target is the same in assay [2]. Nature of the assay: Luminex binning; huIgG on bead 72 as capture, 2nd mAb B [D00012 FIG. 16B].
The target is the same in assay [3]. Description: Luminex binning; huIgG on bead 72 as capture, 2nd mAb C [D00012 FIG. 16B].
For assay [4] the target is unchanged. Nature of the assay: Luminex binning; huIgG on bead 72 as capture, 2nd mAb D [D00012 FIG. 16B].
The target is the same in assay [5]. Description: Luminex binning; huIgG on bead 72 as capture, 2nd mAb E [D00012 FIG. 16B].
For assay [6] the target is unchanged. Description: Luminex binning; huIgG on bead 72 as capture, 2nd mAb F [D00012 FIG. 16B].
The target is the same in assay [7]. Nature of the assay: Luminex binning; huIgG on bead 72 as capture, 2nd mAb M [D00012 FIG. 16B].
Assay [8] shares this target. Nature of the assay: Luminex binning; huIgG on bead 72 as capture, 2nd mAb I [D00012 FIG. 16B].
For assay [9] the target is unchanged. Nature of the assay: Luminex binning; huIgG on bead 72 as capture, 2nd mAb J [D00012 FIG. 16B].
The target is the same in assay [10]. Nature of the assay: Luminex binning; huIgG on bead 72 as capture, 2nd mAb K [D00012 FIG. 16B].
Assay [11] has the same target. Description: Luminex binning; huIgG on bead 72 as capture, 2nd mAb L [D00012 FIG. 16B].
For assay [12] the target is unchanged. Description: Luminex binning; huIgG on bead 72 as capture, 2nd mAb N [D00012 FIG. 16B].
Assay [13] has the same target. Nature of the assay: Luminex binning; huIgG on bead 72 as capture, 2nd mAb O [D00012 FIG. 16B].
For assay [14] the target is unchanged. Nature of the assay: Luminex binning; huIgG on bead 72 as capture, 2nd mAb Q [D00012 FIG. 16B].
Assay [15] shares this target. Description: Luminex binning; huIgG on bead 72 as capture, 2nd mAb R [D00012 FIG. 16B].

Turning to huIgG (antibody), the normalized MFI in assay [1] amounted to 84; in assay [2] it was 37; in [3] it was 54; in [4], 123; in [5], 26; in assay [6], 140. The normalized MFI in [7] amounted to 32; in assay [8] it was 22; in assay [9], 35; in assay [10], 100; in [11] it was 34; in assay [12], 56. For the same substance, the normalized MFI in assay [13] worked out at 95; in assay [14], 28; in [15] it was 50.

These data come from US20110008841A1.
